Laboratory results: FireProtDB (doi:10.1002/prot.340220405)

B1: Chemotaxis protein CheY, P0AE67 (parent)
chain: MADKELKFLVVDDFSTMRRIVRNLLKELGFNNVEEAEDGVDALNKLQAGGYGFVISDWNMPNMDGLELLKTIRADGAMSALPVLMVTAEAKKENIIAAAQAGASGYVVKPFTAATLEEKLNKIFEKLGM

Variants of: B1
Details: Escherichia coli (strain K12); pH 8; 25 °C; Urea; CD; Na-PIPES 50 mM; reversible: yes; structure 1CEY; whole UniProt chain shown

Variant | ddG of mutation (higher = less stable) | denaturant m value | denaturant midpoint (higher = more stable) | unfolding free energy
MADKELKFLVVDDNSTMRRIVRNLLKELGFNNVEEAEDGVDALNKLQAGGYGFVISDWNMPNMAGLELLKTIRADGAMSALPVLMVTAEAKKENIIAAAQAGASGYVVKPFTAATLEEKLNKIFEKLGM [D64A F14N] | -1.7 kcal/mol | 1.69 kcal/mol/M | 4.32 M | 7.3 kcal/mol
MADKELKFLVVDDFSTMRRIVRNLLKELGFNNVEEAEDGVDALNKLQAGGYGFVISDWNMPNMDGLELLKTIRADGAMSGLPVLMVTAEAKKENIIAAAQAGASGYVVKPFTAATLEEKLNKIFEKLGM [A80G] | -0.6 kcal/mol | 1.68 kcal/mol/M | 3.65 M | 6.2 kcal/mol
MADKELKFLVVDDNSTMRRIVRNLLKELGFNNVEEAEDGVDALNKLQAGGYGFVISDWNMPNMDGLELLKTIRADGAMSALPVLMVTAEAKKENIIAAAQAGASGYVVKPFGAATLEEKLNKIFEKLGM [T112G F14N] | -1.9 kcal/mol | 1.68 kcal/mol/M | 4.46 M | 7.5 kcal/mol
MADKELKFLVVDDNSTMRRIVRNLLKELGFNNVEEAEDGVDALNKLQAGGYGFVISDWNMPNMDGLELLKTIRADGAMSALPVLMVTAEAKKENIIAAAQAGGSGYVVKPFTAATLEEKLNKIFEKLGM [A103G F14N] | -1.2 kcal/mol | 1.75 kcal/mol/M | 3.89 M | 6.8 kcal/mol
MADKELKFLVVDDFSTMRRIVRNLLKELGFNNVEEAEDGVDALNKLQAGGYGFVISDWNMPNMDGLELLKTIRADGGMSALPVLMVTAEAKKENIIAAAQAGASGYVVKPFTAATLEEKLNKIFEKLGM [A77G] | 0.3 kcal/mol | 1.56 kcal/mol/M | 3.32 M | 5.3 kcal/mol
MADKELKFLVVDDNSTMRRIVRNLLKELGFNNVEEAEGGVDALNKLQAGGYGFVISDWNMPNMDGLELLKTIRADGAMSALPVLMVTAEAKKENIIAAAQAGASGYVVKPFTAATLEEKLNKIFEKLGM [D38G F14N] | -1.9 kcal/mol | 1.81 kcal/mol/M | 4.14 M | 7.5 kcal/mol
MADKELKFLVVDDNSTMRRIVRNLLKELGFNNVEEAEDGVDALNKLQAGGYGFVISDWNMPNMDGLELLKTIRADGAMSALPVLMVTAEAKKENIIAAAQAGASGYVVKPFTAATLEEKLNKIFEKLGM [F14N] | -2.9 kcal/mol | 1.8 kcal/mol/M | 4.72 M | 8.5 kcal/mol
MADKELKFLVVDDNSTMRRIVRNLLKELGFNNVEEAEDGVDALNKLQAGGYGFVISDWNMPNMDGLELLKTIRADGAMSALPVLMVTAEAKKENIIAGAQAGASGYVVKPFTAATLEEKLNKIFEKLGM [A98G F14N] | -1.6 kcal/mol | 1.76 kcal/mol/M | 4.09 M | 7.2 kcal/mol
MADKELKFLVVDDNSTMRRIVRNLLKELGFNNVEEAEDGVDALNKLQAGGYGFVISDWNMPNMDGLELLKTIRADGAMSALPVLMVTAEAAKENIIAAAQAGASGYVVKPFTAATLEEKLNKIFEKLGM [K91A F14N] | -3.3 kcal/mol | 1.86 kcal/mol/M | 4.8 M | 8.9 kcal/mol
MADKELKFLVVDDNSTMRRIVRNLLKELGFNNVEEAEDGVDALNKLQAGGYGFVISDWNMPNMDGLELLKTIRADAAMSALPVLMVTAEAKKENIIAAAQAGASGYVVKPFTAATLEEKLNKIFEKLGM [G76A F14N] | -3.4 kcal/mol | 1.77 kcal/mol/M | 5.08 M | 9 kcal/mol
MADKELKFLVVDDFSTMRRIVRNLLKELGFNNVEEAEDGVDALNKLQAGGYGFVISDWNMPNMDGLELLKTIRADGAMSALPVLMVTAEAKKENIIAAAQAGASGYVVKPFTAGTLEEKLNKIFEKLGM [A114G] | 0.5 kcal/mol | 1.6 kcal/mol/M | 3.2 M | 5.1 kcal/mol
MADKELKFLVVDDNSTMRRIVRNLLKELGFNNVEEAEDGVDALNKLQAGGYGFVISDWNMPNMGGLELLKTIRADGAMSALPVLMVTAEAKKENIIAAAQAGASGYVVKPFTAATLEEKLNKIFEKLGM [D64G F14N] | -2.6 kcal/mol | 1.72 kcal/mol/M | 4.77 M | 8.2 kcal/mol
MADKELKFLVVDDNSTMRRIVRNLLKELGFNNVEEAEDGVDALNKLQAGGYGFVISDWNMPNMDGLELLKTIRADGAMSALPVLMVTAEAKKENIIGAAQAGASGYVVKPFTAATLEEKLNKIFEKLGM [A97G F14N] | -1.5 kcal/mol | 1.77 kcal/mol/M | 4 M | 7.1 kcal/mol
MADKELKFLVVDDNSTMRRIVRNLLKELGFNNVEEAEDGVDGLNKLQAGGYGFVISDWNMPNMDGLELLKTIRADGAMSALPVLMVTAEAKKENIIAAAQAGASGYVVKPFTAATLEEKLNKIFEKLGM [A42G F14N] | -0.6 kcal/mol | 1.73 kcal/mol/M | 3.58 M | 6.2 kcal/mol
MADKELKFLVVDDNSTMRRIVRNLLKELGFNNVEEGEDGVDALNKLQAGGYGFVISDWNMPNMDGLELLKTIRADGAMSALPVLMVTAEAKKENIIAAAQAGASGYVVKPFTAATLEEKLNKIFEKLGM [A36G F14N] | 0.2 kcal/mol | 1.6 kcal/mol/M | 3.41 M | 5.4 kcal/mol
MADKELKFLVVDDNSTMRRIVRNLLKELGFNNVEEAEDGVDALNKLQAGGYGFVISDWNMPNMDGLELLKTIRADGAMSALPVLMVTAEAKKENIIAAAQAGASGYVVKPFAAATLEEKLNKIFEKLGM [T112A F14N] | -1.4 kcal/mol | 1.68 kcal/mol/M | 4.12 M | 7 kcal/mol
MADKELKFLVVDDFSTMRRIVRNLLKELGFNNVEEAEDGVDALNKLQAGGYGFVISDWNMPNMDGLELLKTIRADGAMSALPVLMVTGEAKKENIIAAAQAGASGYVVKPFTAATLEEKLNKIFEKLGM [A88G] | -0.1 kcal/mol | 1.64 kcal/mol/M | 3.48 M | 5.7 kcal/mol
MADKELKFLVVDDNSTMRRIVRNLLKELGFNNVEEAEAGVDALNKLQAGGYGFVISDWNMPNMDGLELLKTIRADGAMSALPVLMVTAEAKKENIIAAAQAGASGYVVKPFTAATLEEKLNKIFEKLGM [D38A F14N] | -1 kcal/mol | 1.87 kcal/mol/M | 3.58 M | 6.6 kcal/mol
MADKELKFLVVDDFSTMRRIVRNLLKELGFNNVEEAEDGVDALNKLQAGGYGFVISDWNMPNMDGLELLKTIRGDGAMSALPVLMVTAEAKKENIIAAAQAGASGYVVKPFTAATLEEKLNKIFEKLGM [A74G] | 0.3 kcal/mol | 1.6 kcal/mol/M | 3.32 M | 5.3 kcal/mol
MADKELKFLVVDDFSTMRRIVRNLLKELGFNNVEEAEDGVDALNKLQAGGYGFVISDWNMPNMDGLELLKTIRADGAMSALPVLMVTAEAKKENIIAAGQAGASGYVVKPFTAATLEEKLNKIFEKLGM [A99G] | 0.5 kcal/mol | 1.58 kcal/mol/M | 3.23 M | 5.1 kcal/mol
